Legend:
[1] = biological target: the molecule itself; experiment: AUC; sedimentation velocity, 0.15 mg/mL SP-BN in 5 mM Tris-HCl pH 7.0, 150 mM NaCl, 20°C, 48,000 rpm
[2] = biological target: the molecule itself; experiment: AUC; sedimentation velocity, 0.15 mg/mL SP-BN in 5 mM Tris-HCl pH 7.0, 500 mM NaCl, 20°C, 48,000 rpm; 35% of the loaded protein detected
[3] = biological target: the molecule itself; experiment: cross-linking; 0.26 mg/mL SP-BN in 20 mM Tris-HCl, 500 mM NaCl pH 7.0, 0.08% (v/v) glutaraldehyde for 20 s and 120 s at 20°C; SDS-PAGE and immunoblot
[4] = biological target: the molecule itself; experiment: differential scanning calorimetry; 0.3 mg/mL SP-BN in 5 mM Tris-HCl pH 7, 500 mM NaCl, 20-120°C at 60°C/h; second transition fitted to the Non Two-State model with two peaks; ratio of van't Hoff to calorimetric enthalpy

B1: NH2-terminal propeptide of the precursor of pulmonary surfactant protein SP-B (recombinant human SP-BN) (domain or fragment, UniProt P07988 24-200, looked up)
chain: AWTTSSLACAQGPEFWCQSLEQALQCRALGHCLQEVWGHVGADDLCQECEDIVHILNKMAKEAIFQDTMRKFLEQECNVLPLKLLMPQCNQVLDDYFPLVIDYFQNQTDSNGICMHLGLCKSRQPEPEQEPGMSDPLPKPLRDPLPDPLLDKLVLPVLPGALQARPGPHTQDLSEQQ
notes: 177 amino acids, 19,902 Da from the composition; Not glycosylated (made in bacteria); also called N-terminal propeptide of proSP-B; the propeptide; source: E. coli, expressed as fusion MBP-SP-BN, purified after cleaving the fusion with factor Xa
[1]
  stoichiometry N: 2
[2]
  stoichiometry N: 6
[3]
  stoichiometry N: 3
[4]
  stoichiometry N: ~4
